The values that follow come from article PMC7736295 (Cell Discovery, 2020).

The chains are these.
B2: CASK-CaMK (residues 1-337) (domain or fragment)
chain: MADDDVLFEDVYELCEVIGKGPFSVVRRCINRETGQQFAVKIVDVAKFTSSPGLSTEDLKREASICHMLKHPHIVELLETYSSDGMLYMVFEFMDGADLCFEIVKRADAGFVYSEAVASHYMRQILEALRYCHDNNIIHRDVKPHCVLLASKENSAPVKLGGFGVAIQLGESGLVAGGRVGTPHFMAPEVVKREPYGKPVDVWGCGVILFILLSGCLPFYGTKERLFEGIIKGKYKMNPRQWSHISESAKDLVRRMLMLDPAERITVYEALNHPWLKERDRYAYKIHLPETVEQLRKFNARRKLKGAVLAAVSSHKFNSFYGDPPEELPDFSEDPTS

Test [1] deals with T1, CASK-CaMK (residues 1-337) (UniProt Q62915 1-337).
T1 construct: CaMK domain of CASK, residues 1-337; also called CASK(residues 1-337); source: E. coli BL21 (DE3), purified (Ni2+-Sepharose, size-exclusion chromatography); not shown: Trx, N-terminal, cleaved; His6, N-terminal, cleaved
T1 sequence (looked up): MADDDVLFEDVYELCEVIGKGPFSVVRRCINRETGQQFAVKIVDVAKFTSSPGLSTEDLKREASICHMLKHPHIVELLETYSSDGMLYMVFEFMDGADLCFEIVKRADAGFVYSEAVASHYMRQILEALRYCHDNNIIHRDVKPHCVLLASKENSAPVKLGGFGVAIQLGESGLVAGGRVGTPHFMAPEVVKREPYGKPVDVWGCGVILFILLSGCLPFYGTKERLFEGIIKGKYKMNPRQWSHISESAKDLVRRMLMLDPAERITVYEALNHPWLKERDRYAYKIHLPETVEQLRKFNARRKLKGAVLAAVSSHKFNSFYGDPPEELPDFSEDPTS
The experiment in a line: ITC; MicroCalorimeter ITC200, 25 °C; Mint1 fragments and mutants injected into CASK-CaMK in the cell; repeated three times. Particulars: both partners purified. For orientation: In ITC the heat of successive injections is recorded.

Test [2] has as its target T2, Mint1-CID (residues 338-397) I352A I355A I359A (UniProt O35430 338-397, I352A | I355A | I359A).
T2 sequence: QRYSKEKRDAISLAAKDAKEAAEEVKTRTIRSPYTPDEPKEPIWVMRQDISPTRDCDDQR
The experiment in a line: ITC.

The target of test [3] is T3, CASK-CaMK (residues 1-319) (UniProt Q62915 1-319).
T3 chain: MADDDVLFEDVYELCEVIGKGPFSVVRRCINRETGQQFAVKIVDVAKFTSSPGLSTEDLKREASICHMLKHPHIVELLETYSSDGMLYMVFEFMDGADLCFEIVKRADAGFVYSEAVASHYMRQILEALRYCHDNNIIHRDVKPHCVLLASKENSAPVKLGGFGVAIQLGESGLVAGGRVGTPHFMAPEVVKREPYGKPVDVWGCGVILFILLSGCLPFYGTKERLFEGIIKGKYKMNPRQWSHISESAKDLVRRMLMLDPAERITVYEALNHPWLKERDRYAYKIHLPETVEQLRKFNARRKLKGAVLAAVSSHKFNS
The experiment in a line: ITC.

The target of test [4] is B2. As to the kind of experiment: ITC.
Test [5] addresses T4, CASK-CaMK (residues 1-301) (UniProt Q62915 1-301).
T4 chain: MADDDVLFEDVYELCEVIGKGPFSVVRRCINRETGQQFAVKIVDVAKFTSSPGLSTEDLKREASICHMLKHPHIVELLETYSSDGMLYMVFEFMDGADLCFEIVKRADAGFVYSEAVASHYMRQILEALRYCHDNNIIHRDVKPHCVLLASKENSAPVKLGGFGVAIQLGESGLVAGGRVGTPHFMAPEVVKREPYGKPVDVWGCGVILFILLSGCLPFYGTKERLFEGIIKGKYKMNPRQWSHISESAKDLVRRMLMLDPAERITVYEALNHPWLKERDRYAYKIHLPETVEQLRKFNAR
As to the kind of experiment: ITC.

B1: Mint1-C-CID (residues 371-397) (domain or fragment, UniProt O35430 371-397, looked up)
chain: YTPDEPKEPIWVMRQDISPTRDCDDQR
notes: C-terminal half of the CID of Mint1, residues 371-397; source: E. coli BL21 (DE3), purified (Ni2+-Sepharose, size-exclusion chromatography); not shown: Trx, N-terminal, cleaved; His6, N-terminal, cleaved
In general, Kd refers to the equilibrium constant for the complex coming apart. Take B1: in test [1], the Kd is around 500 nM. Molecule B2 had a Kd in test [2] of 270 nM.

B3: Mint1-CID (residues 338-397) (domain or fragment, UniProt O35430 338-397, looked up)
chain: QRYSKEKRDAISLAIKDIKEAIEEVKTRTIRSPYTPDEPKEPIWVMRQDISPTRDCDDQR
notes: also called the entire CID; the whole CID; source: E. coli BL21 (DE3), purified (Ni2+-Sepharose, size-exclusion chromatography); not shown: Trx, N-terminal, cleaved; His6, N-terminal, cleaved
B3: the Kd in test [1] is around 20 nM; in test [3] it was 30 nM; in test [4] it was 17 nM; in test [5], 42 nM.

B4: Mint1-CID (residues 338-397) I352A I355A I359A (domain or fragment, UniProt O35430 338-397, looked up)
chain: QRYSKEKRDAISLAAKDAKEAAEEVKTRTIRSPYTPDEPKEPIWVMRQDISPTRDCDDQR
notes: Mint1-CID residues 338-397 with I352A, I355A and I359A; Probably made as the wild-type fragment (E. coli, Trx-His6 tag removed); also called the mutations in the N-CID; source: recombinant protein
As for B4, the “fold reduction of the binding affinity against the wild-type CID” value in test [1] is around 15 fold.

B5: Mint1-CID (residues 338-397) W381A (domain or fragment, UniProt O35430 338-397, looked up)
chain: QRYSKEKRDAISLAIKDIKEAIEEVKTRTIRSPYTPDEPKEPIAVMRQDISPTRDCDDQR
notes: Mint1-CID residues 338-397 with W381A; Probably made as the wild-type fragment (E. coli, Trx-His6 tag removed); also called the C-CID W381A mutation; source: recombinant protein
In test [1], B5 came in with a Kd of around 55000 nM.
